Laboratory results from the supplement of paper PMC12042874.
± gives the uncertainty stated by the source.

Assay: amyloid nucleation score (Sup35N fusion, yeast selection) (log enrichment); library NNK3; higher = more nucleation; inactive = no reads after selection
How it was run: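 Nucleation score is defined as the DiMSum log enrichment of output over input reads, with centring on the mode score of non-aggregating sequences. A minimum of 100 input reads was required for each sequence. Reads came from Illumina sequencing of plasmid inserts from psi-negative yeast expressing Sup35N fused to peptides of 20 random codons, induced with 100 μM copper sulfate for 24 hours and grown 7 days at 30°C on medium lacking adenine and uracil.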

Amyloid nucleation score, 0.367 ± 0.14:
ALFLIFSRELHSNDNLLECS

Amyloid nucleation score, 0.56 ± 0.18:
AMSTPIGMGEVKFKCFILWL

Amyloid nucleation score, 1.3 ± 0.14:
ASIPGQRYSEPVKPGTCMYV

Amyloid nucleation score, 1.55 ± 0.12:
ALFVGFRF

Amyloid nucleation score, 0.684 ± 0.27:
AYIFIWWKGANKFVSFNKII

Amyloid nucleation score, 0.176 ± 0.77:
APLSNFALHIPEELRLESSF

Amyloid nucleation score, 1.11 ± 0.17:
AEIVCICV

Amyloid nucleation score, 1.01 ± 0.23:
ATFRMGRKVPWS

Amyloid nucleation score, 0.478 ± 0.21:
AVLSLCINGIVALKGDSGCC

Amyloid nucleation score, 0.698 ± 0.27:
AFINMMWNSTMDLCRPFLPT

Amyloid nucleation score, -0.193 ± 0.65:
CGDAPRQVVVGPRYKRSMES

Amyloid nucleation score, -0.688 ± 0.88:
ALNSLYTFMDRNNRELECGL

Amyloid nucleation score, 1.41 ± 0.1:
AYSRIHSWRMVCKRSNNGVG

Amyloid nucleation score, 0.541 ± 0.34:
ALPYCSLVGCYVCKCRLMWL

Amyloid nucleation score, 1.55 ± 0.074:
CFAIYSLLYRVR

Amyloid nucleation score, 1.68 ± 0.094:
AMVYMMNLEIHVYSIRYA

Amyloid nucleation score, -0.681 ± 1.2:
ASLPVLPSNPDKSEGAKGHE

Amyloid nucleation score, 0.069 ± 0.47:
AFVGRWYCGFVASVIFEMQG

Amyloid nucleation score, 0.485 ± 0.24:
AISYFSSWGAM

Amyloid nucleation score, 0.024 ± 0.64:
CFLAENILFSN

Amyloid nucleation score, 1.84 ± 0.094:
CGFDMY

Amyloid nucleation score, -0.674 ± 1.3:
ALSHITDLQFLYSIVFQAHM

Amyloid nucleation score, 2.08 ± 0.072:
CFMSNIDIFLDRCMRKGCNH

Amyloid nucleation score, -0.335 ± 0.73:
AFKNYVPMFTW

Amyloid nucleation score, inactive:
AAEDRSWSHPATQFLLVVRQ
AALSSTW
AAPMS
AAYGELL
ACAFS
ACFVKY
ACKSGHLNSHKNGYYV
ACLYY
ACYAAQCWSNF
ADFGLHRNCRRGCLGMFFL
ADPDVR
ADVCNAFRVISICLYAIIVL
ADVDCFTVNLVYSRYAFVTT
AEMDRRATFTGDHGDGFAIV
AEVHDDHPMGSDAHIYGTGG
AEYQPFRQRHVL
AFIFGCHNGTFKYGKYTCRG
AFMNWVARRKTRWGGLYGGN
AFNHCETDRLTCL
AFRSTSQYVY
AFSDGTLSLTSKVRLGDS
AFVSPYR
AFYVVLTNTVYVGWLQE
AFYYRVELVYLAC
AGAGLNKLSVLTVTTLLMIL
AGAVVDV
AGDLNYRSGLSGRNYARGFT
AGPKALIVMPKICDGDIWME
AGSCVMFGPSW
AHFISFNRYHVARFINAHRL
AIDHSFT
AIELIFVLWAFAHCAPCFEL
AIKLC
AIKYICSFSSVSVMR
AIKYILRAALNLNSSSTELE
AIMFLFLYTRGAYAYYLGLL
AIRLYLDGIHQMHYYHTLCL
AKNSKKSMLSVNGDRNDQSF
AKWLEEKLMPAIDVVPGQWL
ALCKVMSKLPSISW
ALFSLSWLNQRDSIWVKSDQ
ALIRITRYYLSFTGY
ALLKD
ALNIPVTRGTTPAWFLILLD
ALNLVLLLCVTRRSRLSQSS
ALSDDTDTQAANQLHGCTGW
ALSSNKSCVQYS
ALVLNRVLRLDVGVSSGCRL
ALWNTFFLCENTFRMVGFVC
ALYERWSTDNVWRRSSQEFL
AMTCNDYSRYVF
AMVRNVYSCLRNRTCFLSSL
ANCKG
ANFQWE
ANIGKIVKEHRQQSIQHCID
ANSYLTYN
ANVLKFIWAFVWASVALLWS
ANYFTPTNCSVRLRWISDPT
ANYVCKNAVYVMQNNGLVH
APDQLF
APDVQYFYSLQD
APSPPMNFSPCKLDLPCWAI
APYNFKDYCISGIWSGYIMF
ARFISVCEHEARLRERTCMC
ARKLFCQTVEENHS
ARKMRKAMYLRGTSALVPCL
ARLRVVIDRCLYRGLSQLQP
ARPNGTTKCVDNGRKPVRII
ARQTVPSCTLYYWFLSTVKY
ARSDVSCPWSGRMATVCLTV
ASAYSTYKVERLGFDGVQSS
ASFSMG
ASHRGYRQRRKDVFHGIEA
ASILRTKMLVCKGGKILQLQ
ASLLLTYWVVTEVCRLDLGL
ASLRCINFMCWLSQTLGVLL
ASLTYY
ASNSIKWFADHFPHSFVN
ASQDI
ASQSSVLPWNS
ASRTAHVSEVQFGCAPGSER
ASVMLNFC
ATFQSRFFCCRSRGGTLGCD
ATGVMLNDDS
ATGYGL
ATMKWFCIKHSFFPIGTCYA
ATRSLINQQCCRNYASKVLN
AVATCP
AVKHHSSTFIFTMGIKLLWL
AVMNVHFDSSVMEPIDLNRW
AVNMLESFFGGVPLRSLCFV
AVPDVKSAKVDLVNFILAVC
AVTSVSWLIIIDGALRSVKG
AVVPAFDLLWRNRLITSMTS
AVWNFTQFYAENEGHNVSLS
AWRSMSGVTYPQGTSLPFSK
AWYFAP
AYLCGANINL
AYWCG
AYWSFFPWGLYARLPGTPVV
CALGEKLFSGSAYMVYPG
CASSWLF
CAWVDRYYKKVIGANRGSLS
CCAGSLLLNRVQV
CCLFMLFMRMRTHL
CCRGRAFVGYLLQIIYVRGR
CCSRACEFVAVKFNRSSYNL
CDFIDVS
CDMRP
CDRLYSNLLRVAAMAPKASW
CDSLHNDAVYTSLGAWANHP
CDVQKSLGCHTCWGRDWWNR
CDWFILKA
CEVRGCNYTYSVGERCSQN
CFAFGW
CFAHSLMR
CFGRLLRTAILNLCNLFFAL
CFIKSMRVVMVILPFAPCLK
CFLRKTSNASLIHPSRDTNN
CFLVNQ
CFPLSVK
CFPTTSK
CFSTPCLCQSNELANIGSPT
CFVGLRSGAVSCWGQGNYVA
CGDLMPNRYTLSSSNTMSNS
CGGANVLYRVQYDPWRS
CGIMPLSHGIDLMFVRVTPG

Amyloid nucleation score, 1.53 ± 0.087:
AVVSIVVLRDKRTFLGRLYL

Amyloid nucleation score, 0.106 ± 1.1:
CFLRWNRFL

Amyloid nucleation score, -0.308 ± 0.84:
ASHMMQRIMTRQ

Amyloid nucleation score, 0.013 ± 0.75:
ASIHMFVLYRWSFG

Amyloid nucleation score, 1.44 ± 0.11:
AYMYSTILGSMPS

Amyloid nucleation score, -0.42 ± 1.8:
AGSIGPVRSRGIMLTRLEV

Amyloid nucleation score, 0.725 ± 0.24:
CCKSVKFKSLPARN

Amyloid nucleation score, 2.06 ± 0.064:
CCVGYFYGLEV

Amyloid nucleation score, 2.17 ± 0.087:
ASRAESVVGSFFCFFL

Amyloid nucleation score, 2.33 ± 0.088:
AWRKPCWGRVNYFLYIVGAG

Amyloid nucleation score, 1.63 ± 0.12:
AWVHLPGQESGYYCCFMNEM

Amyloid nucleation score, 1.49 ± 0.14:
ACSVHFFHARW
